± gives the uncertainty stated by the source.
Assay: self-splicing fitness, log relative to wild type (ln ratio); higher = more splicing; Tetrahymena group I intron in knt gene, E. coli kanamycin selection, DiMSum; sequences stand for … in CUCUCU…GGAGGGAAAAGUUAUCAGGCAUGCACCUGGUAGCUAGUCUUUAAACCAAUAGAUUGCAUCGGUUUAAAAGGCAAGACCGUCAAAUUGCGGGAAAGGGGUCAACAGCCGUUCAGUACCAAGUCUCAGGGGAAACUUUGAGAUGGCCUUGCAAAGGGUAUGGUAAUAAGCUGACGGACAUGGUCCUAACCACGCAGCCAAGUCCUAAGUCAACAGAUCUUCUGUUGAUAUGGAUGCAGUUCACAGACUAAAUGUCGGUCGGGGAAGAUGUAUUCUUCUCAUAAGAUAUAGUCGGACCUCUCCUUAAUGGGAGCUAGCGGAUGAAGUGAUGCAACACUGGAGCCGCUGGGAACUAAUUUGUAUGCGAAAGUAUAUUGAUUAGUUUUGGAGUACUCGUGGUCG
How it was run: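 The eight P1ex-region nucleotides of an intron in the knt kanamycin-resistance gene on pET-22b(+) were all randomised and the library put into E. coli BL21(DE3). Six replicate transformations were grown overnight at 37°C or 30°C on LB agar with or without 25 μg/mL kanamycin, together with 100 μg/mL carbenicillin, 50 μM IPTG and 0.2% rhamnose. Colonies were pooled and amplicon-sequenced on an Illumina HiSeq 2500. Fitness from DiMSum is the error-weighted combination of wild-type-normalised replicate fold changes, kanamycin over none.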

UUGCAGCAAUAUUACGUACC
self-splicing fitness (ln) (30 °C): -3.54 ± 0.47 | self-splicing fitness (ln) (37 °C): -2.55 ± 0.33

AACCAGCAAUAUUACGGUGU
self-splicing fitness (ln) (30 °C): -1.87 ± 0.061 | self-splicing fitness (ln) (37 °C): -2.56 ± 0.11

UAAUAGCAAUAUUACGCAAU
self-splicing fitness (ln) (30 °C): -3.5 ± 0.23 | self-splicing fitness (ln) (37 °C): -2.4 ± 0.26

CGCAAGCAAUAUUACGUAUU
self-splicing fitness (ln) (30 °C): -3.08 ± 0.21 | self-splicing fitness (ln) (37 °C): -3.5 ± 0.35

AAUAAGCAAUAUUACGCUCA
self-splicing fitness (ln) (30 °C): -0.304 ± 0.091 | self-splicing fitness (ln) (37 °C): -0.155 ± 0.12

UAAUAGCAAUAUUACGUUUC
self-splicing fitness (ln) (30 °C): -2.95 ± 0.45 | self-splicing fitness (ln) (37 °C): -1.35 ± 0.23

GAUAAGCAAUAUUACGUAAC
self-splicing fitness (ln) (30 °C): -1.22 ± 0.1 | self-splicing fitness (ln) (37 °C): -0.811 ± 0.16

CUGGAGCAAUAUUACGGAUA
self-splicing fitness (ln) (30 °C): -3.57 ± 0.48 | self-splicing fitness (ln) (37 °C): -1.35 ± 0.25

UUAUAGCAAUAUUACGAGCG
self-splicing fitness (ln) (30 °C): -0.835 ± 0.28 | self-splicing fitness (ln) (37 °C): -0.754 ± 0.29

AGCCAGCAAUAUUACGGUGU
self-splicing fitness (ln) (30 °C): -1.99 ± 0.084 | self-splicing fitness (ln) (37 °C): -2.51 ± 0.12

UGCCAGCAAUAUUACGCAAU
self-splicing fitness (ln) (30 °C): -4.51 ± 0.2 | self-splicing fitness (ln) (37 °C): -2.59 ± 0.13

GCGAAGCAAUAUUACGCGGU
self-splicing fitness (ln) (30 °C): -2.84 ± 0.29 | self-splicing fitness (ln) (37 °C): -1.65 ± 0.32

UCUUAGCAAUAUUACGGUAG
self-splicing fitness (ln) (37 °C): -2.11 ± 0.41

GUAUAGCAAUAUUACGAUUG
self-splicing fitness (ln) (30 °C): -3.48 ± 0.42 | self-splicing fitness (ln) (37 °C): -1.67 ± 0.3

CCUAAGCAAUAUUACGAUAU
self-splicing fitness (ln) (30 °C): -3.87 ± 0.32 | self-splicing fitness (ln) (37 °C): -2.6 ± 0.21

CACCAGCAAUAUUACGGUCA
self-splicing fitness (ln) (30 °C): -0.569 ± 0.05 | self-splicing fitness (ln) (37 °C): 0.174 ± 0.062

AGACAGCAAUAUUACGCGAU
self-splicing fitness (ln) (30 °C): -2.68 ± 0.14 | self-splicing fitness (ln) (37 °C): -1.29 ± 0.15

GAGCAGCAAUAUUACGACGG
self-splicing fitness (ln) (30 °C): -4.27 ± 0.26 | self-splicing fitness (ln) (37 °C): -2.18 ± 0.17

ACCCAGCAAUAUUACGCGCA
self-splicing fitness (ln) (30 °C): -0.821 ± 0.061 | self-splicing fitness (ln) (37 °C): -0.299 ± 0.075

GCGAAGCAAUAUUACGAAGU
self-splicing fitness (ln) (30 °C): -2.99 ± 0.35 | self-splicing fitness (ln) (37 °C): -2.89 ± 0.26

UCAGAGCAAUAUUACGGGGA
self-splicing fitness (ln) (30 °C): -1.48 ± 0.11 | self-splicing fitness (ln) (37 °C): -1.1 ± 0.13

ACUAAGCAAUAUUACGUACC
self-splicing fitness (ln) (30 °C): -1.05 ± 0.16 | self-splicing fitness (ln) (37 °C): -0.715 ± 0.2

CGUCAGCAAUAUUACGCGGG
self-splicing fitness (ln) (30 °C): -3.87 ± 0.24 | self-splicing fitness (ln) (37 °C): -2.94 ± 0.21

AUGAAGCAAUAUUACGUUCU
self-splicing fitness (ln) (30 °C): -0.34 ± 0.076 | self-splicing fitness (ln) (37 °C): 0.201 ± 0.092

CUAGAGCAAUAUUACGAAGG
self-splicing fitness (ln) (30 °C): -1.22 ± 0.12 | self-splicing fitness (ln) (37 °C): -0.403 ± 0.15

AAUUAGCAAUAUUACGGGAA
self-splicing fitness (ln) (30 °C): -1.88 ± 0.32 | self-splicing fitness (ln) (37 °C): -1.88 ± 0.3

UGCUAGCAAUAUUACGCUAU
self-splicing fitness (ln) (30 °C): -2.75 ± 0.21 | self-splicing fitness (ln) (37 °C): -0.801 ± 0.12

AGCCAGCAAUAUUACGUGCU
self-splicing fitness (ln) (30 °C): -3.62 ± 0.18 | self-splicing fitness (ln) (37 °C): -2.06 ± 0.21

AUCGAGCAAUAUUACGUGAC
self-splicing fitness (ln) (30 °C): -3.54 ± 0.26 | self-splicing fitness (ln) (37 °C): -2.91 ± 0.29

GUUGAGCAAUAUUACGUUUG
self-splicing fitness (ln) (30 °C): -4.75 ± 0.32 | self-splicing fitness (ln) (37 °C): -2.6 ± 0.24

AAAAAGCAAUAUUACGCACG
self-splicing fitness (ln) (30 °C): -1.4 ± 0.094 | self-splicing fitness (ln) (37 °C): -0.508 ± 0.14

GAAUAGCAAUAUUACGCUUC
self-splicing fitness (ln) (37 °C): -1.83 ± 0.44

ACGAAGCAAUAUUACGGAAA
self-splicing fitness (ln) (30 °C): -2.38 ± 0.17 | self-splicing fitness (ln) (37 °C): -3.02 ± 0.21

GAAGAGCAAUAUUACGGUUC
self-splicing fitness (ln) (30 °C): -3.53 ± 0.29 | self-splicing fitness (ln) (37 °C): -1.46 ± 0.22

AGGGAGCAAUAUUACGGUGU
self-splicing fitness (ln) (30 °C): -4.33 ± 0.22 | self-splicing fitness (ln) (37 °C): -2.37 ± 0.18

GACUAGCAAUAUUACGAUCA
self-splicing fitness (ln) (30 °C): -0.805 ± 0.062 | self-splicing fitness (ln) (37 °C): -0.314 ± 0.077

CUCGAGCAAUAUUACGUCUC
self-splicing fitness (ln) (30 °C): -2.55 ± 0.23 | self-splicing fitness (ln) (37 °C): -2.5 ± 0.39

CUUUAGCAAUAUUACGGAGG
self-splicing fitness (ln) (30 °C): -1.75 ± 0.15 | self-splicing fitness (ln) (37 °C): -1.29 ± 0.19
